The text below walks through data of paper PMC5036643.

Like-named read-outs stand apart in the source and are kept apart here.

Common to all, as to assay: single-molecule bead assay
The target of test [1] is Microtubules of porcine brain tubulin, tetramethylrhodamine-labelled, taxol-stabilised (porcine) (UniProt P02550).
For test [2] the target is unchanged. The source holds these as a separate data set.
The target is the same in test [3]. This is another data set of the same source.
Test [4] shares this target. This is another data set of the same source.
For test [5] the target is unchanged. This is another data set of the same source.
Test [6] shares this target. The source holds these as a separate data set.
For test [7] the target is unchanged. The source holds these as a separate data set.
For test [8] the target is unchanged. The source holds these as a separate data set.

In the case of “Conventional kinesin (native, from bovine brain) (complex)”, the average duration (time between attachment and detachment) in test [1] amounted to 0.92 s; in test [2] it was 0.8 s; in test [3] it was 0.69 s; in test [4], 1.53 s; in test [5], 1.11 s; in test [6], 1.01 s. Moreover, the average duration (time between attachment and detachment) turned out to be 1.19 s in test [7] and 1.03 s in test [8].
